Source: the Human Domainome abundance scans (Beltran et al. 2025)

B1: Receptor-interacting serine/threonine-protein kinase 2, residues 438 to 518; numbered along this chain, O43353 (parent)
chain: QWIQSKREDIVNQMTEACLNQSLDALLSRDLIMKEDYELVSTKPTRTSKVRQLLDTTDIQGEEFAKVIVQKLKDNKQMGLQ
B2: Protein maelstrom homolog, residues 3 to 71; numbered along this chain, Q96JY0 (parent)
chain: NRKASRNAYYFFVQEKIPELRRRGLPVARVADAIPYCSSDWALLREEEKEKYAEMAREWRAAQGKDPGP

Variants of: B1
Assay: abundance fitness (aPCA) (normalised: wild type 0, dead -1); higher = more abundant; growth selection in yeast, the domain comes from the species named
Conditions: Homo sapiens

Abundance fitness: each site, then its substitutions
E8: I -0.768 | K -0.319 | V -0.301 | P -0.527 | F -0.691 | D 0.031 | T -0.209 | S -0.276 | W -0.918 | H -0.884 | C -0.994 | Q -0.569 | R -0.36 | M -0.272 | G -0.29 | L -0.507

Variants of: B2
Assay: as above
Conditions: Homo sapiens

Abundance fitness: each site, then its substitutions
P69: Y 0.162 | R 0.397 | F 0.035 | H -0.049 | M -0.144 | K 0.411 | W 0.11 | L 0.189 | A -0.007 | G 0.392 | C 0.071 | S 0.126 | E 0.168 | I -0.556 | Q -0.281 | V 0.013 | N -0.341
D66: I 0.024 | W -0.155 | R -0.02 | E -0.003 | H 0.122 | M 0.051 | K 0.171 | Y -0.095 | V 0.018 | T 0.173 | Q 0.07 | L 0.047 | C -0.241 | P -0.052 | A -0.148 | S -0.042 | F -0.116
P67: G 0.009 | S -0.067 | W -0.263 | N -0.105 | H 0.024 | V 0.091 | A -0.098 | K -0.069 | E -0.046 | R 0.118 | F -0.101 | M -0.12 | T -0.155 | L 0.022 | D -0.43 | C -0.417
G68: F -0.119 | D -0.083 | Q -0.064 | R -0.079 | N -0.459 | V -0.376 | W -0.128 | S -0.273 | K -0.025 | L -0.309 | A -0.139 | E 0.014 | H 0.038 | C -0.12 | T -0.186 | M -0.048 | Y -0.646 | I -0.296
